We go through 1 molecule from paper PMC9076600, “Ultrasensitive detection of Staphylococcal enterotoxin B in milk based on target-triggered assembly of the flower like nucleic acid nanostructure†”.

Holding throughout (assay): Binding buffer not stated; […] (50 uM) […]
Data set [1] has as its target OVA (UniProt P01012 2-386).
The target in data set [2] is Staphylococcal enterotoxin A (SEA) (UniProt P0A0L2 25-257).
Data set [3] concerns the target Staphylococcal enterotoxin B (SEB) (UniProt P01552 28-266).

Chain of OVA (P01012 2-386): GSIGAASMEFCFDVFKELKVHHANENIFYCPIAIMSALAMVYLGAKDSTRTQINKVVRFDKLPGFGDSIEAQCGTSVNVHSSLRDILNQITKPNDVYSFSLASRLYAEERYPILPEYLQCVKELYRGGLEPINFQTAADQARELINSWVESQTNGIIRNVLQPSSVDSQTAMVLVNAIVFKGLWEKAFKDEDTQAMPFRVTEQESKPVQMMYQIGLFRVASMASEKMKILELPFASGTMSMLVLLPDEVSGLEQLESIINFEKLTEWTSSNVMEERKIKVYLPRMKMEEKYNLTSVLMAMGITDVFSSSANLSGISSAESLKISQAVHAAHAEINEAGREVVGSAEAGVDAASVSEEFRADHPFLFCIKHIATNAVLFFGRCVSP
Chain of Staphylococcal enterotoxin A (SEA) (P0A0L2 25-257): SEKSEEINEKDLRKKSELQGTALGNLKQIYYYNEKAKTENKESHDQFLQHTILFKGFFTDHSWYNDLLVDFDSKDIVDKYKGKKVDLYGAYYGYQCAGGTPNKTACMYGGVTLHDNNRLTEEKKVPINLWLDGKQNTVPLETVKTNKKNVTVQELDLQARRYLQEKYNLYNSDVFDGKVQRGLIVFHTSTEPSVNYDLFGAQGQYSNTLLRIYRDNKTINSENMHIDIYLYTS
Chain of Staphylococcal enterotoxin B (SEB) (P01552 28-266): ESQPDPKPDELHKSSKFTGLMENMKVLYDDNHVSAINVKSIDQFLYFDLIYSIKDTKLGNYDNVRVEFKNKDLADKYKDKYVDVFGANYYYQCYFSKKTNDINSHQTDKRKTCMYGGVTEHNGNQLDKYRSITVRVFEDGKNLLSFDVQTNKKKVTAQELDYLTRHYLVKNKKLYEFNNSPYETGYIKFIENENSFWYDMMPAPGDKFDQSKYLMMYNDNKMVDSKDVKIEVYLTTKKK

B1: SEB aptamer (ssDNA)
DNA: GGTATTGAGGGTCGCATCCACTGGTCGTTGTCTGTTGTCTGTTATGTTGTTTCGTGATGGCTCTAACTCTCCTCT
As for B1, the binding result in data set [1] was “no binding”; in data set [2] it was “no binding”; in data set [3], “binds”.
